One assay addresses T1, SLMAP (human, UniProt Q14BN4).
T1 construct: expressed in transfected HEK293 cells
T1 sequence (looked up): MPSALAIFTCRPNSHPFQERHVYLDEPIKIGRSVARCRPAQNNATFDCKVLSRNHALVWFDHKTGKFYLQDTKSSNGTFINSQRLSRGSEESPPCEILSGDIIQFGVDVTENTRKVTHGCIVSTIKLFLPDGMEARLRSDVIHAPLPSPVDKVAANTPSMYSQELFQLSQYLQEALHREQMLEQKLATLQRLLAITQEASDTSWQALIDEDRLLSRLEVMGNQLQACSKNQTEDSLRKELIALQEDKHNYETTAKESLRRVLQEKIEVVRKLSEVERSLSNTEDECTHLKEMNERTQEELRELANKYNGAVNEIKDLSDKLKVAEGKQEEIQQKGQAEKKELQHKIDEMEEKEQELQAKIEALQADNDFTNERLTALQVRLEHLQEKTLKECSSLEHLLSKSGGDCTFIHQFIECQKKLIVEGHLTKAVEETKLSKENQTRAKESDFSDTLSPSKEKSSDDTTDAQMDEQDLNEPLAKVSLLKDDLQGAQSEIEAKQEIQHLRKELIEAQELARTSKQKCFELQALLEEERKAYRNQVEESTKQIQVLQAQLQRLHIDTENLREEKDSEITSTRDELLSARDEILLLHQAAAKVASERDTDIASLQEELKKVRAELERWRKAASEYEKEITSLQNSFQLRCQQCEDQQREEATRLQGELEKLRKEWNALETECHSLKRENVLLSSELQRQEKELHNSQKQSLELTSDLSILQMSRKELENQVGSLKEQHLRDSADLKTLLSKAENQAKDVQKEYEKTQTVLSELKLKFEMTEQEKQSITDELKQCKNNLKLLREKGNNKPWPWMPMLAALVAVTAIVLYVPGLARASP
Description: cell array, transfected fixed HEK293 cells.

The next assay deals with T2, PSAPL1 (human, UniProt Q6NUJ1).
T2 construct: expressed in transfected HEK293 cells
T2 sequence (looked up): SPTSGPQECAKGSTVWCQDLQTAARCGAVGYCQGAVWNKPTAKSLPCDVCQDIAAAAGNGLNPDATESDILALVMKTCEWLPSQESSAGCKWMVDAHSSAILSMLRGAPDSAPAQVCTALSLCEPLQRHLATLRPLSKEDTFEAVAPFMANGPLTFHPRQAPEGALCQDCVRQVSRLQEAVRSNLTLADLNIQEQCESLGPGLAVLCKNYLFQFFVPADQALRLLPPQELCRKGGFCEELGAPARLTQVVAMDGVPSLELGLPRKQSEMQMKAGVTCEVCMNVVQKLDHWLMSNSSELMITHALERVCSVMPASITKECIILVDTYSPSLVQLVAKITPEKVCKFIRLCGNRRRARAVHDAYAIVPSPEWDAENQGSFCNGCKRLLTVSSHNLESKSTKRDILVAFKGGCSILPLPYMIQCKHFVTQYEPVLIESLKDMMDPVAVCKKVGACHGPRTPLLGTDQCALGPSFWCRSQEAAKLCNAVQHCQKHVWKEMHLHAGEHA
Put plainly: cell array, transfected fixed HEK293 cells.

These results are taken from patent publication US20200283521A1 (GRANULAR THERAPEUTICS, published 2020).

Description for PSAPL1: (§1) Transfection of all plasmids was confirmed by screening for the co-encoded marker ZS green (FIG. 13A).
(§2) Primary hits (duplicate spots) were identified by analysing fluorescence (AF647 and ZsGreenl) on ImageQuant. Vectors encoding all hits were sequenced to confirm their correct identities. […] Slides were analysed as above.
Description for SLMAP: as §1, §2

B1: MH1, human IgG1 (antibody, V domains shown)
VH: QVQLVQSGAEVKKPGASVKVSCKASGYTFTDYYMNWVRQAPGQGLEWMGRIYPGSGNTYYAQKFQGRVTMTRDTSTSTVYMELSSLRSEDTAVYYCARGVYYYDYWGQGTLVTVSS
VL: DIQMTQSPSSLSASVGDRVTITCRASQGIRTNLAWFQQKPGKAPKSLIYAASSLQSGVPSRFSGSGSGTDFTLTISSLQPEDFATYYCQQYNSYPRTFGGGTKVEIK
notes: IgG1; also called IgG1-MH1
Take B1: the binding result in the assay with SLMAP and with PSAPL1 was “no binding (tested: 2 µg/ml)” in each case.
